The EC50 is the concentration needed to bring the measured effect to its halfway point. High values mean a less potent agent, low ones a more potent agent. The IC50 is the concentration that inhibits the measured activity by half. A word on the EC50 (read off the curve): it is the concentration that produces a half-maximal response. High values mean a need for much substance, low ones an effect from little substance.

The target in assay [1] is T1, BAFF (Sino biological, 10056-HNCH) (UniProt Q9Y275 134-285, biotinylated in the blocking ELISA (site not stated)).
T1 construct: also called BLyS
T1 sequence (Q9Y275 134-285 limits assumed): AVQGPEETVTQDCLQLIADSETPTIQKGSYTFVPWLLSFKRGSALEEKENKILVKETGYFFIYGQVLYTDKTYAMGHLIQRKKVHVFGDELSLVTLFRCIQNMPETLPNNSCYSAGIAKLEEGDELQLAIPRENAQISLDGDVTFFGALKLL
The experiment in a line: ELISA, BAFF coated at 1 ug/mL, anti-human IgG-HRP. As for the experimental part:
(§1) In addition, the BAFF binding activity of the constructed TACI-Fc fusion proteins was assessed, and the TACI-Fc fusion proteins' functional activity of blocking the binding of BAFF to BAFF-R was assessed (see Example 1 for the experimental method).
The BAFF binding activity of the TACI-Fc fusion proteins was assessed as follows: BAFF (Sino biological, 10056-HNCH) protein was diluted with a pH 7.4 PBS (BasalMedia, B320) buffer to 1 μg/mL, and the resulting dilution was added to a 96-well microplate (Corning, 3590) at 100 μL/well. The plate was incubated overnight at 4° C. After the liquid was discarded, 5% skim milk (BD, 232100), diluted with PBS, was added at 300 μL/well for blocking, and the plate was incubated at 37° C. for 2 h. After the blocking, the blocking solution was discarded, and the plate was washed 3 times with a PBST buffer (pH 7.4 PBS containing 0.10% tween-20). Serially diluted test antibody or fusion protein solutions were added at 100 μL/well, and the plate was incubated at 37° C. for 1 h. […] The plate was incubated at 37° C. for 1 h. After the plate was washed 3 times with PBST, the chromogenic substrate TMB (KPL, 5120-0077) was added at 100 μL/well. The plate was incubated at room temperature for 10-15 min, and 1 M H₂SO₄ was added at 50 μL/well to stop the reaction. The absorbance at 450 nm was measured using a microplate reader. Curves for the binding of the antibodies to the antigen were fitted using software, and EC₅₀ values were calculated.
A general note: In an ELISA, binding on a coated surface is turned into a signal by an enzyme label.

In assay [2] the target is T1, BAFF (Sino biological, 10056-HNCH). The experiment in a line: competition ELISA: fusion protein pre-mixed with biotinylated BAFF, added to coated BAFF-R. As for the experimental part: The above TACI-Fc fusion proteins' function of blocking the binding of BAFF to BAFF-R was further assessed as follows: The receptor protein was diluted with a pH 7.4 PBS (BasalMedia, B320) buffer to 2 μg/mL, and the resulting dilution was added to a 96-well microplate (Corning, 3590) at 100 μL/well. The plate was incubated overnight at 4° C. After the liquid was discarded, 1% Casein blocking solution (Thermo, 37528) was added at 200 μL/well for blocking, and the plate was incubated at 37° C. for 2 h. After the blocking, the blocking solution was discarded, and the plate was washed 3 times with a PBST buffer (pH 7.4 PBS containing 0.1% tween-20) and set aside for later use. A biotinylated ligand protein at a fixed concentration was mixed with a serially diluted antibody or fusion protein, and the mixture was pre-incubated at 37° C. for 30 min and then added to the blocked microplate. The plate was incubated at 37° C. for 1.5 h. After the incubation, the plate was washed 3 times with PBST, and streptavidin-HRP (Invitrogen, 434323, diluted in a 1:4000 ratio) was added at 100 μL/well. The plate was incubated at 37° C. for 1 h. The supernatant was removed. After the plate was washed 3 times with PBST, the chromogenic substrate TMB (KPL, 5120-0077) was added at 100 μL/well. The plate was incubated at room temperature for 10-15 min, and 1 M H₂SO₄ was added at 50 μL/well to stop the reaction. The absorbance at 450 nm was measured using a microplate reader. Curves for the inhibition of the binding of the ligand to the receptor were fitted using software, and IC₅₀ values were calculated. The sources of the ligand and the receptor protein used are as follows: BAFF (Sino biological, 10056-HNCH) and BAFF-R (Sino biological, 16079-H02H).
as §1

Assay [3] deals with T2, BAFF (PeproTech, Cat: 310-13) (UniProt Q9Y275 134-285). The experiment in a line: ELISA, BAFF coated; reference telitacicept. As for the experimental part:
(§2) The capabilities of TACI-BCMA fusion proteins (B575701, B575702, B575703, and B575704) to bind to BAFF and APRIL were assessed by ELISA as follows: BAFF (PeproTech, Cat: 310-13) or ARPIL (Acro Biosystems, Cat: APL-H52D1) was diluted to 1 μg/mL with PBS, and a 96-well plate (Costar, Cat: 3590) was coated with the dilution overnight at 4° C. The plate was washed with PBST and blocked with Blocking Buffer (PBST containing 1% BSA) at 37° C. for 1 h. The plate was tapped. The test antibodies were diluted with Blocking Buffer. Incubation was performed at 37° C. for 1.5 h. The plate was washed with PBST. An HRP-mouse anti-human Fc antibody (GenScript, Cat: A01854-200) was diluted with Blocking Buffer. Incubation was performed at 37° C. for 40 min. The plate was washed with PBST. 100 μL of TMB substrate solution (Biopanda, Cat: TMB-S-003) was added, and color development was performed at 37° C. for 3 min. 100 μL of ELISA stop solution (Solarbio, Cat: C1058) was added. OD450 was measured.
(§3) The capability of B575702 to bind to BAFF was consistent with that of B575704, and their EC₅₀ values decreased to ¼ of that of telitacicept. The capability of B575701 to bind to BAFF was consistent with that of B575703, and their EC₅₀ values decreased to ½ of that of telitacicept.

In assay [4] the target is T2, BAFF (PeproTech, Cat: 310-13). The experiment in a line: ELISA, BAFF coated at 1 ug/mL, anti-human Fc-HRP, OD450. As for the experimental part: as §2, §3
For assay [5], the target named is T3, APRIL (Acro Biosystems, Cat: APL-H52D1) (UniProt O75888 115-250, limits assumed).
T3 construct: also called ARPIL
T3 sequence (looked up): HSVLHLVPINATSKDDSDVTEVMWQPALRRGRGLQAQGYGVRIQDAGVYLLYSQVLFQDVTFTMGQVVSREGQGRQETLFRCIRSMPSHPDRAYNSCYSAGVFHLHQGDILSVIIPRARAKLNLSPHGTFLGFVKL
The experiment in a line: ELISA, APRIL coated at 1 ug/mL, anti-human Fc-HRP, OD450. As for the experimental part:
as §2
The capabilities of the 4 fusion proteins to bind to APRIL were all stronger than that of telitacicept, and their EC₅₀ values decreased to ¼ to ⅓ of that of telitacicept.

The target of assay [6] is T2, BAFF (PeproTech, Cat: 310-13). The experiment in a line: ELISA, plate coated with BAFF 1 ug/mL, HRP anti-human Fc, OD450. As for the experimental part:
as §2, with “BAFF” for “The capabilities of TACI-BCMA fusion proteins (B575701, B575702, B575703, and B575704) to bind to BAFF and APRIL were assessed by ELISA as follows: BAFF”, “310-13)” for “310-13) or ARPIL (Acro Biosystems, Cat: APL-H52D1)”, “plate” for “plate (Costar, Cat: 3590)”

T2 sequence (Q9Y275 134-285 limits assumed): as the sequence (Q9Y275 134-285 limits assumed) above

B1: TACI-11-Fc (Fc fusion)
chain: SLSCRKEQGKFYDHLLRDCISCASICGQHPKQCAYFCENDKTHTCPPCPAPEAEGAPSVFLFPPKPKDTLMISRTPEVTCVVVDVSHEDPEVKFNWYVDGVEVHNAKTKPREEQYNSTYRVVSVLTVLHQDWLNGKEYKCKVSNKALPSSIEKTISKAKGQPREPQVYTLPPSRDELTKNQVSLTCLVKGFYPSDIAVEWESNGQPENNYKTTPPVLDSDGSFFLYSKLTVDKSRWQQGNVFSCSVMHEALHNHYTQKSLSLSPGK
B1 registered an EC50 in assay [1] of 0.584 nM. For the same molecule, in assay [2], the concentration for half-maximal inhibition (IC50) turned out to be 2.62 nM.

B2: TACI-12-Fc (Fc fusion)
chain: SLSCRKEQGKFYDHLLRDCISCASICGQHPKQCAYFCEDKTHTCPPCPAPEAEGAPSVFLFPPKPKDTLMISRTPEVTCVVVDVSHEDPEVKFNWYVDGVEVHNAKTKPREEQYNSTYRVVSVLTVLHQDWLNGKEYKCKVSNKALPSSIEKTISKAKGQPREPQVYTLPPSRDELTKNQVSLTCLVKGFYPSDIAVEWESNGQPENNYKTTPPVLDSDGSFFLYSKLTVDKSRWQQGNVFSCSVMHEALHNHYTQKSLSLSPGK
notes: TACI-9 truncated C-terminally by 3 amino acids, fused directly to Fc
The molecule B2 came in with an EC50 in assay [1] of 0.894 nM. Moreover, in assay [2], the IC50 amounted to 3.86 nM.

B3: B575704 (Fc fusion)
chain: MLQMAGQCSQNEYFDSLLHACIPCQLRCSSNTPPLTCQRYCNASVTNSVKGTNASRVDQEERFPQGLWTGVAMRSCPEEQYWDPLLGTCMSCKTICNHQSQRTCAAFCRSLSCRKEQGKFYDHLLRDCISCASICGQHPKQCAYFCENKLRSPVNLPPELDKTHTCPPCPAPEAEGAPSVFLFPPKPKDTLMISRTPEVTCVVVDVSHEDPEVKFNWYVDGVEVHNAKTKPREEQYNSTYRVVSVLTVLHQDWLNGKEYKCKVSNKALPSSIEKTISKAKGQPREPQVYTLPPSRDELTKNQVSLTCLVKGFYPSDIAVEWESNGQPENNYKTTPPVLDSDGSFFLYSKLTVDKSRWQQGNVFSCSVMHEALHNHYTQKSLSLSPGK
notes: TACI-BCMA fusion protein; also called BCMA-ECD-TACI-T2-Fc
Consider B3, for which the “EC50 relative to telitacicept” value in assay [3] stood at 0.25 fold. In addition, the results for the concentration giving a half-maximal response (EC50) in assay [4] and in assay [5] were 0.187 nM and 0.189 nM, respectively. Also, the Emax in assay [4] was 2.29 nM (as printed); in assay [5] it was 2.68.

B4: B575701 (Fc fusion)
chain: LSCRKEQGKFYDHLLRDCISCASICGQHPKQCAYFCENKLRSPGMLQMAGQCSQNEYFDSLLHACIPCQLRCSSNTPPLTCQRYCNASVTNSVKGTNADKTHTCPPCPAPEAEGAPSVFLFPPKPKDTLMISRTPEVTCVVVDVSHEDPEVKFNWYVDGVEVHNAKTKPREEQYNSTYRVVSVLTVLHQDWLNGKEYKCKVSNKALPSSIEKTISKAKGQPREPQVYTLPPSRDELTKNQVSLTCLVKGFYPSDIAVEWESNGQPENNYKTTPPVLDSDGSFFLYSKLTVDKSRWQQGNVFSCSVMHEALHNHYTQKSLSLSPGK
notes: TACI-BCMA fusion protein; also called TACI-d2-BCMA-ECD-Fc
As for B4, in assay [3], the “EC50 relative to telitacicept” value is 0.5 fold. Further, in assay [4], the 50% effective concentration (EC50) was found to be 0.324 nM and the Emax was 2.31 nM (as printed). In assay [5], this molecule came in with an EC50 of 0.205 nM and an Emax of 2.69.

B5: TACI-10-Fc (Fc fusion)
chain: SLSCRKEQGKFYDHLLRDCISCASICGQHPKQCAYFCENKDKTHTCPPCPAPEAEGAPSVFLFPPKPKDTLMISRTPEVTCVVVDVSHEDPEVKFNWYVDGVEVHNAKTKPREEQYNSTYRVVSVLTVLHQDWLNGKEYKCKVSNKALPSSIEKTISKAKGQPREPQVYTLPPSRDELTKNQVSLTCLVKGFYPSDIAVEWESNGQPENNYKTTPPVLDSDGSFFLYSKLTVDKSRWQQGNVFSCSVMHEALHNHYTQKSLSLSPGK
notes: TACI-9 truncated C-terminally by 1 amino acid, fused directly to Fc
B5 came in with an EC50 in assay [1] of 0.561 nM. In addition, the IC50 in assay [2] was 2.7 nM.

B6: Atacicept (Fc fusion)
chain: AMRSCPEEQYWDPLLGTCMSCKTICNHQSQRTCAAFCRSLSCRKEQGKFYDHLLRDCISCASICGQHPKQCAYFCENKLRSEPKSSDKTHTCPPCPAPEAEGAPSVFLFPPKPKDTLMISRTPEVTCVVVDVSHEDPEVKFNWYVDGVEVHNAKTKPREEQYNSTYRVVSVLTVLHQDWLNGKEYKCKVSNKALPSSIEKTISKAKGQPREPQVYTLPPSRDELTKNQVSLTCLVKGFYPSDIAVEWESNGQPENNYKTTPPVLDSDGSFFLYSKLTVDKSRWQQGNVFSCSVMHEALHNHYTQKSLSLSPGK
On to B6, for which the half-maximal effective concentration (EC50 (read off the curve)) in assay [6] is ~0.3 nM.
